According to US20030158387A1 (PHARIS BIOTEC, published 2003):
*: point of attachment. Nonanoyl = CCCCCCCCC(=O)*

B1: HCC-1[12-74] (ligand)
chemokine chain: HPSECCFTYTTYKIPRQRIMDYYETNSQCSKPGIVFITKRGHSVCTNPSDKWVQDYIKDMKEN
notes: Not in the list MOLECULES; also called PHC-2
B2: HCC-1[10-74] (ligand)
chain: PYHPSECCFTYTTYKIPRQRIMDYYETNSQCSKPGIVFITKRGHSVCTNPSDKWVQDYIKDMKEN
notes: Synthetic, oxidatively folded
B3: processed human chemokine PHC-1 (HCC-1[9-74]) (ligand)
chain: GPYHPSECCFTYTTYKIPRQRIMDYYETNSQCSKPGIVFITKRGHSVCTNPSDKWVQDYIKDMKEN
notes: Purified from human hemofiltrate or made by tryptic digestion of HCC-1 (1-74)
B4: HCC-1[7-74] (ligand)
chain: SRGPYHPSECCFTYTTYKIPRQRIMDYYETNSQCSKPGIVFITKRGHSVCTNPSDKWVQDYIKDMKEN
notes: Synthetic, oxidatively folded
B5: HCC-1[8-74] (ligand)
chain: RGPYHPSECCFTYTTYKIPRQRIMDYYETNSQCSKPGIVFITKRGHSVCTNPSDKWVQDYIKDMKEN
notes: Synthetic, oxidatively folded
B6: NNY-HCC-1[10-74] (nonanoyl-HCC-1[10-74]) (ligand)
chain: Nonanoyl-PYHPSECCFTYTTYKIPRQRIMDYYETNSQCSKPGIVFITKRGHSVCTNPSDKWVQDYIKDMKEN
modifications: ends and bridges not checked
notes: Chemokine compound analog, synthetic
B7: HCC-1, residues 6-74 (ligand)
chain: SSRGPYHPSECCFTYTTYKIPRQRIMDYYETNSQCSKPGIVFITKRGHSVCTNPSDKWVQDYIKDMKEN
notes: also called HCC-1[6-74]
B8: HCC-1[11-74] (ligand)
chain: YHPSECCFTYTTYKIPRQRIMDYYETNSQCSKPGIVFITKRGHSVCTNPSDKWVQDYIKDMKEN
notes: Synthetic, oxidatively folded
B9: RANTES (ligand, UniProt P13501 24-91, looked up)
chain: SPYSSDTTPCCFAYIARPLPRAHIKEYFYTSGKCSNPAVVFVTRKNRQVCANPEKKWVREYINSLEMS
modifications: ends and bridges not checked; also: 125I-labelled where used as tracer, unlabelled in functional assays

Biological target: T1, chemokine receptor 5 (CCR5) (human, UniProt P51681 1-352)
T1 construct: whole, on cells
Assay: competition radioligand binding, membranes of CHO-K1 cells expressing CCR5, tracer [125I]-MIP-1 beta; mean ± SEM

T1 sequence (P51681 whole entry): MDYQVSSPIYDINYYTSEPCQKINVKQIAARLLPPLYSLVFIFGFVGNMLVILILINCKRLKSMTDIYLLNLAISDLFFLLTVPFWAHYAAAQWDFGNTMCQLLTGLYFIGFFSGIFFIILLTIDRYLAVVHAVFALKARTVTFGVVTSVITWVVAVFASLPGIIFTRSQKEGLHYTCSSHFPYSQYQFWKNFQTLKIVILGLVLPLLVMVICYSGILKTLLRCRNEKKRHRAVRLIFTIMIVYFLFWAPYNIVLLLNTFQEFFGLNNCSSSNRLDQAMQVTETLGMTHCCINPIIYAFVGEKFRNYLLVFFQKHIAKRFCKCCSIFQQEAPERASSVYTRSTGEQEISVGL

| Binder | IC50 |
| --- | --- |
| B1 | 4.29 nM |
| B2 | 0.065 nM |
| B3 | 0.0961 nM |
| B4 | 7.72 nM |
| B5 | 5.9 nM |
| B6 | 0.0343 nM |
| B7 | 21.6 nM |
| B8 | 1.2 nM |

Biological target: T1, chemokine receptor 5 (CCR5)
Assay: competition radioligand binding, membranes of CHO-K1 cells expressing CCR5, tracer [125I]-MIP-1 beta

| Binder | IC50 (read off the curve) |
| --- | --- |
| B2 | ~0.1 nM |
| B3 | ~0.1 nM |
| B7 | ~20 nM |

Biological target: T2, chemokine receptor CCR3 (UniProt P51677 1-355, limits assumed)
T2 construct: whole, on cells
T2 sequence (looked up): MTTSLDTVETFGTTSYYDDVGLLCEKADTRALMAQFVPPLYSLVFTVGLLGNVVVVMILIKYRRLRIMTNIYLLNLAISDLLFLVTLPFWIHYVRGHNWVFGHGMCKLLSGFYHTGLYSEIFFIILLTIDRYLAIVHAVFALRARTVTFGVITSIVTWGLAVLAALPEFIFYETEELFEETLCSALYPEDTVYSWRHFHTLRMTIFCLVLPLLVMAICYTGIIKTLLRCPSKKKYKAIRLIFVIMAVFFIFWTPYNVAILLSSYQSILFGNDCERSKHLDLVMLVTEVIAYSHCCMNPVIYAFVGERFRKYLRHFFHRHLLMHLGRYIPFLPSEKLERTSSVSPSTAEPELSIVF
Assay: competition with 125I-Eotaxin, membranes of CHO-K1 cells expressing CCR3, filtration, one site competition model; 125I-Eotaxin tracer, CCR3 membranes
Protocol: (§1) For determination of its binding properties, CHO-K1 cells were used which were stably transfected with the chemokine receptors CCR1, CCR3, CCR5. Therefore, crude membrane extracts prepared from the CHO-K1 cell lines expressing the various GPC were used in radioligand binding assays. Competition binding assays were performed in Minisorp tubes (Nunc, Roskilde, Denmark) in a total volume of 100 μl containing 0.11 nM iodinated ligand as tracer, variable concentrations of competitors and defined amount of membranes. Total binding was measured in the absence of competitor and non-specific binding was measured with a 100-fold excess, of unlabelled ligand. Samples were incubated for 90 minutes at 25° C. then filtered through GF/B filters presoaked in 0.3% polyethylenenimine. Filters were counted in a gamma scintillation counter (Packard). Binding parameters were determined with the PRISM software (Graphpad software, San Diego, Calif.) using non-linear regression applied to a one site competition model.

| Binder | IC50 |
| --- | --- |
| B3 | 2.7 nM |

Biological target: T2, chemokine receptor CCR3
Assay: cell-based or functional assay

| Binder | EC50 of receptor activation (aequorin assay) |
| --- | --- |
| B3 | 78 nM |

Biological target: T1, chemokine receptor 5 (CCR5)
Assay: cell-based or functional assay

| Binder | EC50 (read off the curve) |
| --- | --- |
| B2 | ~6 nM |
| B3 | ~7 nM |
| B9 | ~10 nM |

Biological target: T1, chemokine receptor 5 (CCR5)
Assay: cell-based or functional assay
Remark: another data set of the same source

| Binder | EC50 (aequorin luminescence, CHO-K1 cells expressing CCR5) |
| --- | --- |
| B2 | 3.48 nM |
| B3 | 6.45 nM |
| B4 | 165 nM |
| B5 | 177 nM |
| B6 | 0.453 nM |
| B7 | 402 nM |
| B8 | 224 nM |
| B9 | 8.48 nM |

Biological target: T2, chemokine receptor CCR3
Assay: competition with 125I-Eotaxin for binding to CCR3
Protocol: as §1

| Binder | Ki |
| --- | --- |
| B3 | 2.7 nM |

Biological target: T1, chemokine receptor 5 (CCR5)
Assay: competition with 125I-MIP-1 alpha for binding to CCR5
Protocol: as §1

| Binder | Ki |
| --- | --- |
| B3 | 0.04 nM |

Biological target: T1, chemokine receptor 5 (CCR5)
Assay: competition with 125I-MIP-1 alpha, membranes of CHO-K1 cells expressing CCR5, filtration, one site competition model; 125I-MIP 1-alpha tracer, CCR5 membranes
Protocol: as §1

| Binder | IC50 |
| --- | --- |
| B3 | 0.04 nM |

Biological target: T1, chemokine receptor 5 (CCR5)
Assay: competition radioligand binding, membranes of CHO-K1 cells expressing CCR5, tracer [125I]-MIP-1 beta
Remark: another data set of the same source

| Binder | IC50 (read off the curve) |
| --- | --- |
| B2 | ~0.1 nM |
| B3 | ~0.1 nM |
| B6 | ~0.04 nM |

Biological target: T1, chemokine receptor 5 (CCR5)
Assay: cell-based or functional assay
Remark: another data set of the same source

| Binder | EC50 (read off the curve) |
| --- | --- |
| B2 | ~6 nM |
| B3 | ~7 nM |
| B6 | ~1 nM |
| B9 | ~10 nM |
